Experimental data as given in patent US20220143136A1, “USE OF ANNEXINS IN PREVENTING AND TREATING MUSCLE MEMBRANE INJURY” (NORTHWESTERN UNIVERSITY, priority 2018, published 2022).

Experiments:
wildtype mice = assay: Cardiotoxin injury, systemic retro-orbital recombinant annexin A6, Evan's blue dye uptake; assay type: in vivo, mouse; details: vs vehicle; for decrease in Evan's blue dye uptake, fluorescence imaging of tibialis anterior: 1 mg/kg retro-orbital 2 hours before cardiotoxin, 3 hours post injury
Description: Cardiotoxin Injury and analysis. […] Additionally, mice were injected intraperitoneally with Evans' blue dye at 5 μl/g body weight (E-2129; Sigma-Aldrich, St. Louis, Mo.) dissolved in phosphate-buffered saline at 10 mg/mL. […] Cardiotoxin injury was performed injecting 20 μl of a 10 μM cardiotoxin (discontinued, Sigma-Aldrich) solution in PBS in tibialis muscles in sedated animals (3% isoflurane, 0.8 l/min O2) 2 hours post pretreatment. Cardiotoxin was released down the midline of the muscle to induce a homogenous area of injury at the center of the muscle. 3 hours post cardiotoxin injection muscle was harvested and frozen in liquid nitrogen.
Immunofluorescence microscopy. Sections (10 μm thick) from the center of frozen-embedded muscles were collected on the cryostat (chamber, −20° C.; sample, −15° C.; catalog number CM1950; Leica, Wetzlar, Germany) for immunostaining. Tissues were fixed with 4% paraformaldehyde for 10 minutes on ice. Block and permeabilization were with 0.1% Triton (catalog number X-100; Sigma-Aldrich), 10% fetal bovine serum, and PBS for 60 minutes. For dystrophin detection, anti-dystrophin (ab15277; Abcam, Cambridge, Mass.) was used at a dilution of 1:100 overnight at 4° C. Sections were PBS rinsed, incubated with secondary antibody goat anti rabbit (A11008, Invitrogen) for 1 hour, PBS rinsed, and mounted in vectashield with DAPI (H-1200, Vector Laboratories). Imaging was performed using a Zeiss Axio Observer A1 microscope (Zeiss, Oberkochen, Germany), using a 10× objective. ZEN software (Zeiss, Jena, Germany) was used for acquiring images. Fluorescence quantitation and muscle area were performed using FIJI (NIH). Surface plots were created in FIJI (NIH). Fluorescence volume was quantified using Imaris Software v9.1.2.
Cardiotoxin Injury and analysis. […] Additionally, mice were injected with Evans' blue dye at 5 μl/g body weight (E-2129; Sigma-Aldrich, St. Louis, Mo.) dissolved in phosphate-buffered saline at 10 mg/mL cardiotoxin injury was performed injecting 20 μl of a 10 μM cardiotoxin solution in PBS in tibialis anterior or gastroc/soleus muscles in sedated animals (3% isoflurane, 0.8 l/min O2) 2 hours post pretreatment. Cardiotoxin was released down the midline of the muscle to induce a homogenous area of injury at the center of the muscle. 3 hours post cardiotoxin injection muscle was harvested.
Evans blue dye uptake. Sections (10 μm thick) from the center of frozen-embedded muscles were collected on the cryostat (chamber, −20° C.; sample, −15° C.; catalog number CM1950; Leica, Wetzlar, Germany). Tissue sections were fixed with methanol for 2 minutes, rinsed and mounted with vectashield with DAPI (H-1200, Vector Laboratories). Imaging was performed using a Zeiss Axio Observer A1 microscope (Zeiss, Oberkochen, Germany), using a 10× objective. ZEN software (Zeiss, Jena, Germany) was used for acquiring images. Fluorescence quantitation, surface plots, and muscle area were performed using FIJI (NIH). For whole tissue dye quantification, whole tissue was dissected, finely minced, weighed, and incubated at 55° C. in 1 mL of formamide for 2 hours. Spectrophotometric absorbance was measured at 620 nm.

wildtype myofibers = assay: Ca2+-dependency of recombinant annexin A6 protection, FM 1-43 uptake after laser injury; assay type: cell-based, mouse; details: 20 μg/ml rANXA6 pretreatment, 0 mM Ca2+ + EGTA compared with 1 mM Ca2+
Description: Multiphoton laser injury and imaging. Fibers were subjected to laser-induced damage at room temperature using the Nikon A1R-MP multiphoton microscope. Imaging was performed using a 25×1.1 NA objective directed by the NIS-Elements AR imaging software. Green fluorescence protein (GFP) and FM 4-64 were excited using a 920 nm wavelength laser and emission wavelengths of 575 nm and 629 nm were collected respectively. To induce laser damage on isolated myofibers, a diffraction limited spot (diameter approximately 410 nm) was created on the lateral membrane of the myofiber using a 920 nm wavelength laser at 10-15% laser power for 1 s. Time lapse images were collected as follows: one image was collected prior to damage, one image upon damage, then every 8 seconds for 80 seconds (10 images) followed by every 30 seconds for 5 minutes (10 images). At the end of the time lapsed image series, z-stack images were collected at 250 nm intervals through the damaged site on the myofiber directed by the NIS-Elements AR imaging software. The multiphoton was used to acquire data presented in FIG. 5, FIG. 10D and FIG. 19.
For recombinant protein calcium studies, myofibers were isolated from wildtype mice as described above. […] Images were acquired and quantitated as described above. FM 1-43 fluorescence over time was measured using FIJI and plotted overtime as F/F0.

B1: recombinant annexin A6: recombinant human annexin A6 protein with C-terminal HIS tag (5186-A6-050, R&D systems); mouse protein from Northwestern core in one cohort (protein, UniProt P08133 2-673, looked up)
Annexin A6: AKPAQGAKYRGSIHDFPGFDPNQDAEALYTAMKGFGSDKEAILDIITSRSNRQRQEVCQSYKSLYGKDLIADLKYELTGKFERLIVGLMRPPAYCDAKEIKDAISGIGTDEKCLIEILASRTNEQMHQLVAAYKDAYERDLEADIIGDTSGHFQKMLVVLLQGTREEDDVVSEDLVQQDVQDLYEAGELKWGTDEAQFIYILGNRSKQHLRLVFDEYLKTTGKPIEASIRGELSGDFEKLMLAVVKCIRSTPEYFAERLFKAMKGLGTRDNTLIRIMVSRSELDMLDIREIFRTKYEKSLYSMIKNDTSGEYKKTLLKLSGGDDDAAGQFFPEAAQVAYQMWELSAVARVELKGTVRPANDFNPDADAKALRKAMKGLGTDEDTIIDIITHRSNVQRQQIRQTFKSHFGRDLMTDLKSEISGDLARLILGLMMPPAHYDAKQLKKAMEGAGTDEKALIEILATRTNAEIRAINEAYKEDYHKSLEDALSSDTSGHFRRILISLATGHREEGGENLDQAREDAQVAAEILEIADTPSGDKTSLETRFMTILCTRSYPHLRRVFQEFIKMTNYDVEHTIKKEMSGDVRDAFVAIVQSVKNKPLFFADKLYKSMKGAGTDEKTLTRIMVSRSEIDLLNIRREFIEKYDKSLHQAIEGDTSGDFLKALLALCGGED
modifications: C-terminal His tag
notes: recombinant human annexin A6 protein with C-terminal HIS tag (5186-A6-050, R&D systems); mouse protein from Northwestern core in one cohort
decrease in Evan's blue dye uptake, fluorescence imaging of tibialis anterior (wildtype mice): 38% | decrease in Evan's blue dye uptake, fluorescence imaging of tibialis anterior (wildtype mice; listed as rANXA6): approximately 38% | reduction in dye uptake, whole tissue spectroscopic analysis of gastrocnemius/soleus (wildtype mice; 1 mg/kg retro-orbital pretreatment): 58% | Evan's blue dye uptake, fluorescence imaging (wildtype mice; retro-orbital post-treatment immediately after cardiotoxin): significant decrease | Evan's blue dye uptake, fluorescence imaging (wildtype mice; retro-orbital pretreatment 2 hours prior to cardiotoxin): significant decrease | FM 1-43 fluorescence accumulation at the lesion over time (F/F0) (wildtype myofibers): significantly increased | FM 1-43 fluorescence accumulation at the lesion over time (F/F0) (wildtype myofibers; listed as rANXA6): significantly reduced at 1 mM
